From patent US20260226440

Tests used:
Experiment in all cases: cell_activity
[1] = tested on: Type V nuclease-mutMMLV RT fusion; settings: HEK293T
[2] = tested on: T1, Type V CRISPR nuclease (8218); settings: indels in HEK293T; PAM 5'-TTTC-3'; reference
T1 sequence: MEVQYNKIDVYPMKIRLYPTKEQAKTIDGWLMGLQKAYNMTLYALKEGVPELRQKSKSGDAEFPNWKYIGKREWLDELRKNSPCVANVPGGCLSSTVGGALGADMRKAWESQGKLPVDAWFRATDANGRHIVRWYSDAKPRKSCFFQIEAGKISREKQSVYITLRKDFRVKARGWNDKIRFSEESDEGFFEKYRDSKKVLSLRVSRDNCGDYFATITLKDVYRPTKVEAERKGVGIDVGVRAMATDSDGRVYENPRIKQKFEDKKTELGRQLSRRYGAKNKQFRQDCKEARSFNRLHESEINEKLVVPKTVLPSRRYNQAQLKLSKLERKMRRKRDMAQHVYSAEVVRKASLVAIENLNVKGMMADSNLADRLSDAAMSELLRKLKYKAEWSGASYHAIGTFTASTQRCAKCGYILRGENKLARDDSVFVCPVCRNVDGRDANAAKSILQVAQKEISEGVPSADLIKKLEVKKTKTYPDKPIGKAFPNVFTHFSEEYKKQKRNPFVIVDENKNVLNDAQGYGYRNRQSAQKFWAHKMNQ

[3] = tested on: nuclease-RT fusion R250G R250G (numbering of SEQ ID NO: 1); settings: HEK293T; PAM TTTC; loss of activity; average ratio, EMX1 and VEGFA tested; RT editing ratio 0.022
[4] = molecular target: nuclease-RT fusion D125G D125G (numbering of SEQ ID NO: 1) (UniProt P03355); settings: HEK293T; PAM TTTC; average ratio, EMX1 and VEGFA tested; RT editing ratio 1.436
[5] = molecular target: nuclease-RT fusion N127R N127R (numbering of SEQ ID NO: 1) (UniProt P03355); settings: HEK293T; PAM TTTC; average ratio, EMX1 and VEGFA tested; RT editing ratio 1.507
[6] = molecular target: nuclease-RT fusion S205G S205G (numbering of SEQ ID NO: 1) (UniProt P03355); settings: HEK293T; PAM TTTC; average ratio, EMX1 and VEGFA tested; RT editing ratio 1.654
[7] = molecular target: nuclease-RT fusion S136G S136G (numbering of SEQ ID NO: 1) (UniProt P03355); settings: HEK293T; PAM TTTC; average ratio, EMX1 and VEGFA tested; RT editing ratio 1.907
[8] = tested on: nuclease-RT fusion E328R E328R (numbering of SEQ ID NO: 1); settings: HEK293T; PAM TTTC; loss of activity; average ratio, EMX1 and VEGFA tested; RT editing ratio 0.173
[9] = tested on: nuclease-RT fusion D137R D137R (numbering of SEQ ID NO: 1); settings: HEK293T; PAM TTTC; average ratio, EMX1 and VEGFA tested; RT editing ratio 1.392
[10] = tested on: nuclease-RT fusion A138R A138R (numbering of SEQ ID NO: 1); settings: HEK293T; PAM TTTC; average ratio, EMX1 and VEGFA tested; RT editing ratio 1.266
[11] = molecular target: nuclease-RT fusion D137G D137G (numbering of SEQ ID NO: 1) (UniProt P03355); settings: HEK293T; PAM TTTC; average ratio, EMX1 and VEGFA tested; RT editing ratio 1.665
[12] = molecular target: nuclease-RT fusion D237G D237G (numbering of SEQ ID NO: 1) (UniProt P03355); settings: HEK293T; PAM TTTC; loss of activity; average ratio, EMX1 and VEGFA tested; RT editing ratio 0.038

Sequence: CACCGUGUCAGGCCUGCUAGUCAGCCACAGUUUGGGGAAAGCUGUGCAGCCUGUAACCCCCCCAGGAGAAGCUGGGAAAAAUGAGGAUGUAGUCACGGAUUCAUUAUCAGGUUCUGGCUGCAGGGUGCCUGAUCUGUGCCAGGGUUAAGCAUGCUGGUGAGGUGCAGCCACGAGGUGCGAAAGUACGCCGCAAUGUGCGGAAUUCGCACGAAAGUUGGCGGAUUUCUUCGGAAAUCGAGCCAAUAACCAUCUCCAUAAAUAUGUGUGGUGAUGGACUGCAAGAUUAUCAGCAAGUGGCUGCAUUUUUUGCG / ATTATCAGCAAGTGGCTGCA / TGCAGCCACTTGCTGATAAT
- activity ([1]; PAM ATTC (inferred from RTT), precise editing 1.993%): 7.64 % indel

Sequence: GUGAGGUGCAGCCACGAGGUGCGAAUAGGAAGUACGCAGCAAUGUGCUGAAUCGUUCGCACGAAAAUUGGCAUUUUUGAAAACCAAAGCCAAUAAUCAUAUCCAUAAAUAUGUGUGGUUAUGAACUGCAAGUGUUGCCCUCAUAACUUAUC / TGTTGCCCTCATAACTTATC / GATAAGTTATGAGGGCAACA [parent sgRNA EMX1 ; EMX1 target]
- activity (relative to parent) [2]: 1

Sequence: CACCGUGUCAGGCCUGCUAGUCAGCCACAGUUUGGGGAAAGCUGUGCAGCCUGUAACCCCCCCAGGAGAAGCUGGGAAAAACCGUCAUCAACAUUGCCUUUCUGUUGCCCAGUAAACUUAUCAUACGGAGCCAGGCUAUAUAAUUAGCUACUUCUCCGUGAGGUGCAGCCACGAGGUGCGAAAGUACGCCGCAAUGUGCGGAAUUCGCACGAAAGUUGGCGGAUUUCUUCGGAAAUCGAGCCAAUAAGCAUAUCCAUAUUAUCUGCGGAUGGAUGUGCACUGCAAGUGUUGCCCUCAUAACUUAUCUUUUUUGCG / TGTTGCCCTCATAACTTATC / GATAAGTTATGAGGGCAACA [sgRNA_C16_xrRNA_EMX1_TTTC editing template RNA ; EMX1 target]
- activity ([1]; PAM TTTC, precise editing 1.678%): 10.7 % indel

Sequence: UGUCAGGCCUGCUAGUCAGCCACAGUUUGGGGAAAGCUGUGCAGCCUGUAACCCCCCCAGGAGAAGCUGGGAAAAACCGUCAUCAACAUUGCCUUUCUGUUGCCCAGUAAACUUAUCAUACGGAGCCAGGCUAUAUAAUUAGCUACUUCUCCGUGAGGUGCAGCCACGAGGUGCGAAAGUACGCAGCAAUGUGCUGAAUUCGCACGAAAGUUGGCGGAUUUCUUCGGAAAUCGAGCCAAUAAUCAUAUCCAUAUUAUCUGCGGAUGGAUGUGAACUGCAAGUGUUGCCCUCAUAACUUAUC / TGTTGCCCTCATAACTTATC / GATAAGTTATGAGGGCAACA [Table 7 editing template RNA 1 (EMX1) ; EMX1 target]
- indel ratio to WT (indel ratio to WT) [3]: 0.00013
- indel ratio to WT (indel ratio to WT) [4]: 2.83
- indel ratio to WT (indel ratio to WT) [5]: 2.7
- indel ratio to WT (indel ratio to WT) [6]: 2.53
- indel ratio to WT (indel ratio to WT) [7]: 3.18
- indel ratio to WT (indel ratio to WT) [8]: 0.0299
- indel ratio to WT (indel ratio to WT) [9]: 2.13
- indel ratio to WT (indel ratio to WT) [10]: 2.77
- indel ratio to WT (indel ratio to WT) [11]: 2.8
- indel ratio to WT (indel ratio to WT) [12]: 0.00343

Sequence: CACCGCCGUCAUCAACAUUGCCUUUCUGUUGCCCAGUAAACUUAUCAUACGGAGCCAGGCUAUAUAAUUAGCUACUUCUCGUGAGGUGCAGCCACGAGGUGCGAAAGUACGCCGCAAUGUGCGGAAUUCGCACGAAAGUUGGCGGAUUUCUUCGGAAAUCGAGCCAAUAACCAUCUCCAUAAAUAUGUGUGGUGAUGGACUGCAAGUGUUGCCCUCAUAACUUAUCUUUUUUGCG / TGTTGCCCTCATAACTTATC / GATAAGTTATGAGGGCAACA
- activity ([1]; PAM TTTC, precise editing 0.249%): 14.6 % indel
